Data as given in the supplement of paper PMC9170038.

Tested on: MS2 coat protein
Assay: apparent KD of MS2 coat protein; designed switch direction (-1 OFF switch, 1 ON switch): -1; higher = weaker reporter binding
Outline: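 Three titration conditions were used: no input, 200 uM small-molecule ligand, and an oligonucleotide input. In each, SNAP-549-labelled MS2 coat protein was raised from 0.7 or 1.5 nM, doubling, to 3 µM over designed RNA switches transcribed on Illumina chips by stalled E. coli RNA polymerase. Curve fits of normalised cluster fluorescence gave values whose per-design median over clusters is the apparent KD.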

[1] = Eterna round: R95, input ligand: FMN 200 uM
[2] = Eterna round: R95, input ligand: microRNA oligo, concentration not stated
[3] = Eterna round: R95, input ligand: none
[4] = input ligand: microRNA oligo, concentration not stated

Row | Sequence | apparent KD of MS2 coat protein (input ligand: FMN 200 uM) | apparent KD of MS2 coat protein (input ligand: none) | apparent KD of MS2 coat protein [1] | apparent KD of MS2 coat protein [2] | apparent KD of MS2 coat protein [3] | apparent KD of MS2 coat protein [4]
1 | AGAUUAAAAGUAAGGAUAUGCUUCCGGAAACGGAGGCAGAAGGUACAUGAGGAUCACCCAUGUUAAACUAAUUU [Explosion 5 - Jieux - Brourd's mod of Exclusion 4] (Eterna round: R97, puzzle: Brourd's mod of Exclusion 4) | 21.2 nM | 15.3 nM |  |  |  | 
2 | UUCACAUGGACAUAAGAUCACAUGAGGAUCACCCAUGUGAAUAACAAGCUUUUUGUUCGUCUUAUGUCCAAUAAUAU [Stov1/14-B3] (Eterna round: R97, puzzle: Sensor, turn-off variant 1) | 13.9 nM | 12.2 nM |  |  |  | 
3 | GCGUAUGAGCAGGAUAUCCCGCGGGAAUCCAUAGGAGAAGGGCUCACAUGAGGAUCACCCAUGUGGUCCAGAAA [Isisan] (puzzle: Exclusion 6) |  |  | 20.2 nM | 16.1 nM | 18 nM | 
4 | GCCUCACAUGAGGAUCACCCAUGUCAGGAUAUCUAAGGCGAAGUGCAAGCACCUCGUGAGAGAAGGGACGUCAA [Dienononen] (puzzle: Exclusion 1) |  |  |  | 20.9 nM |  | 
5 | AAAACAAACGAAGGAUAUGCGCGAAAAUGACUAGCAGAAGGUCGACACGGGCGGAUCCGACAUGAGGAUCACCCAUGUAAAACU [Tied] (Eterna round: R96, puzzle: Exclusion NG 1) | 1200 nM | 490 nM |  |  |  | 389 nM
6 | CGAUAAAUGACAGGAUAUUACGCUAAUUGGGACCCUUAACCGACAUGAGGAUCACCCAUGUUUUAUAAGAAGGGUCGUUUGUCA [Eternabot solution 47] (Eterna round: R96, puzzle: Exclusion NG 2) | 21 nM | 13.2 nM |  |  |  | 11.2 nM
7 | UUUAAUCAUGUAGGAUAUGCGUGGCGAAGCUAUGCAGAAGGACAUGAGGAUCACCCAUGUUCUAGCGUCUGCGUACAGAUGCGG [13th something] (Eterna round: R96, puzzle: Exclusion NG 1) | 229 nM | 39.9 nM |  |  |  | 35.3 nM
8 | CCGAAUAUGCAGGAUAUCGUAUCGGAAACGAUACGAGAAGGGCAAACAUGAGGAUCACCCAUGUUCCUUAACGG [Fiskers Ex 6 - 14] (puzzle: Exclusion 6) |  |  |  | 15.8 nM |  | 
9 | AUUGUAUGGGAAGGAUAUAGAAUAUUAUUUUAACAUGAGGAUCACCCAUGUAACCUUAUGUGUAGCUAGAAGGUCCGUUUAUUA [Title] (Eterna round: R96, puzzle: Exclusion NG 2) |  |  |  |  |  | 112 nM
10 | GAUUAUGCGAGCUUUAGGGACAUGAGGAUCACCCAUGUUCGUCUUAUUGGUCUAGGUACGCUGACAUACCUAAAUCU [JMF 101] (puzzle: Sensor v3, turn-off variant 1) |  |  | 20.9 nM | 32.2 nM | 23.7 nM | 
11 | GUGGCGGAUGCGAACAUGAGGAUCACCCAUGUACAGUCCCUACAGGAUAUCCGCAGUGCCUAGCAGGAGAAGGGUAGGAGCACA [Eternabot solution 40] (Eterna round: R96, puzzle: Exclusion NG 3) | 16 nM | 17.9 nM |  |  |  | 10.7 nM
12 | UGAUUGUGAGGAUAUUCUGAAUAAGGCACGGGCGUCUUAUUGAAGAAGGCACAUGAGGAUCACCCAUGUGGGUU [Eternabot (L2) Solution 90] (Eterna round: R97, puzzle: Exclusion 4) | 248 nM | 188 nM |  |  |  | 
13 | AUUAGUAAUAAGGAUAUCACUAGCUGCGGCUAGUGAGAAGGUAUUACAUGAGGAUCACCCAUGUGAUCAAUUAA [E6/3-A3] (Eterna round: R97, puzzle: Exclusion 6) | 912 nM | 476 nM |  |  |  | 
14 | CGGAGCGGCUUAGGAUAUGCUGGAAUAUCCCUGCUCCUCAGAACAUGAGGAUCACCCAUGUACUGGCAGAAGGGAGCUGCAGAG [Inxeedsoxe] (Eterna round: R96, puzzle: Exclusion NG 2) | 21.8 nM | 18.7 nM |  |  |  | 15.4 nM
15 | CAGUACUGAGGAUAUACAUGAGGAUCACCCAUGUGAUAAGGUUAGGAAACUAACCUAUGUAGAAGGCAGUACUG [Eli x3 4.08] (Eterna round: R97, puzzle: Exclusion 3) | 603 nM | 104 nM |  |  |  | 
16 | UGCACCUCAGGAUAUACUAGGUCCAGUAUGGCGAAAGCCGCACAUGAGGAUCACCCAUGUAGAAGGGAGGUGCA [Eternabot (L1) Solution 61] (Eterna round: R97, puzzle: Exclusion 2) | 34.1 nM | 257 nM |  |  |  | 
17 | CCCUCGCGAGGAUAUGCAUCCUCCCUCAUUUCUUUCACUACACAUGAGGAUCACCCAUGUAGAAGGCGCUCUCC [Nina] (puzzle: Exclusion 2) |  |  |  | 41.2 nM |  | 
18 | UAUUCGAUAGGAUAUGCACAUCAUUUGGGAGGUAACAGUGCACAUGAGGAUCACCCAUGUAGAAGGAUCUGGAU [Eternabot (L2) Solution 46] (Eterna round: R97, puzzle: Exclusion 2) | 102 nM | 118 nM |  |  |  | 
19 | CGUGACUCAGGAUAUGGAUUAUAUCACAUGAGGAUCACCCAUGUCCAGCGAAAGCUGGAGUCAGAAGGGAGUCACG [Fiskers Ex 5 - 48] (puzzle: Exclusion 5) |  |  | 34.9 nM | 70.9 nM | 85.4 nM | 
20 | AAAAGGCUAGGAUAUACAUGAGGAUCACCCAUGUGAGGGCACGGCCGGCGCGGGCCCGGUAGAAGGAGUCAAAA [Exc;s3-IX] (puzzle: Exclusion 3) |  |  |  | 13.4 nM |  | 
21 | AUACUCGUAGGAUAUGGCAAGCUGAACAUGAGGAUCACCCAUGUGUUCUACAGAUCUGGGUUAGAAGGACGUUAUU [Eternabot (L2) Solution 39] (Eterna round: R97, puzzle: Exclusion 5) | 49.3 nM | 59.7 nM |  |  |  | 
22 | GUCCUCAUGACAUGAGGAUCACCCAUGUAUUAUUUGUUAACUGAGGAUAUACUCUUAAUGUUUAUGUAGAAGGCAGAUUCGGUC [JR_ExcNG3_Sub019] (Eterna round: R96, puzzle: Exclusion NG 3) | 51.6 nM | 40.7 nM |  |  |  | 37.8 nM
23 | ACAAGUUUUUUGUUUUUUAACAUGAGGAUCACCCAUGUAUUUUUAGAGGAUGUGGGAAUAAGAGCUCUUUGUCUUAU [JR_SV3TOV1_Sub097] (puzzle: Sensor v3, turn-off variant 1) |  |  | 38.6 nM | 90.3 nM | 41.2 nM | 
24 | UAAAAGCUAGGAUAUACAUGAGGAUCACCCAUGUACCGGCUUGGCCCUGGUCCUAAAUGUAGAAGGAGCACGCC [Zarebebi] (puzzle: Exclusion 3) |  |  |  | 14.2 nM |  | 
25 | AACAGUACAGGAUAUACAUGAGGAUCACCCAUGUGACAAUUAAGUGGCGUACCACAAAGUAGAAGGGUACUGGA [Ruby 86] (Eterna round: R96, puzzle: Exclusion 3) | 206 nM | 31 nM |  |  |  | 24.3 nM
26 | AGUACUAACACGGAAGUGUUAGUACUAUAAGCUUGUGUUACAUGAGGAUCACCCAUGUCCUCAUAAGCUCGUCUUAU [Mat - Sensor v3 - Turn-off var 2 - D69] (puzzle: Sensor v3, turn-off variant 2) |  |  | 94.5 nM | 87 nM | 98.2 nM | 
